Results reported in patent US9096835B2, “DNA polymerase” (Medical Research Council, priority 2003, dated 2015).

Tests used:
[1] = system: 215 bp fragment from the cytochrome B gene in the mitochondrial genome; experiment: Ancient DNA PCR, cave hyena samples; assay type: biochemical, cave hyena (Crocuta spelaea); conditions: on two separate occasions
Description: FIG. 12. Several samples of cave hyena (Crocuta spelaea) were extracted and analysed. The seven samples were from Teufelslucke cave (Austria, 40 000 years old), Aufhausener Höhle (Germany, no date determined (2 samples)); Irpfelhöhle (Germany, no date determined); Kiskevelyi ([…] 48 500 years old); Miskolc III (Hungary, 44 000 years old); Mala ladnica (Slovakia, no date determined). The target was a 215 bp fragment from the cytochrome B gene in the mitochondrial genome. The amplification was only successful in the presence of sspDNA.
Several samples of cave hyena (Crocuta spelaea) were extracted and analysed. […] These samples were chosen to test the efficacy of the expanded substrate spectrum polymerases.
Therefore, M1 was blended with a commercial preparation of Taq (SuperTaq (HT biotechnology Ltd)) in a ratio of 1 unit to 10 and compared to Taq in the absence of M1. It was hoped that if M1 could bypass the blocking lesions, then the wild type Taq would amplify the resulting translesion synthesis product.

[2] = system: template containing 5-Nitroindole; experiment: Primer extension opposite 5-nitroindole; assay type: biochemical; conditions: for ability to replicate 5NI: clones from five rounds of selection
Protocol: 50 pmol of ^32P-labelled primer and 100 pmol of template in a volume of 44 μl were annealed in 1× Taq buffer. 4D11 or 5D4 polymerase as cell lysate (6 μl) was added and reactions were incubated at 50° C. for 15 minutes followed by addition of one dNTP (1 μl in total volume of 50 μl, final dNTP concentration 40 μM). 8 μl samples were taken at various time points and added to 8 μl stop solution (7M urea, 100 mM EDTA containing xylene cyanol F). At the end of the time course the remaining 3 dNTPs were added (final concentration each dNTP 40 μM) and reactions incubated at 50° C. for a further 30 minutes. Reaction samples were electrophoretically separated using 20% polyacrylamide gels at 25 W for 4 hours. The resultant gels were dried and scanned using a phosphorimager (Molecular Dynamics). Data was processed using the program ImageQuant (Molecular Dynamics).

[3] = Incorporation and extension of 5-nitroindole-5′-triphosphate; assay type: biochemical; conditions: 50° C., identical conditions as 4D11 and 5D4; data not shown
Protocol: 50 pmol of ^32P-labelled primer and 100 pmol of template in a volume of 44 μl were annealed in 1× Taq buffer. 4D11 or 5D4 polymerase as cell lysate (6 μl) was added and reactions were incubated at 50° C. for 15 minutes followed by addition of d5NITP (1 μl in total volume of 50 µL final dNTP concentration 40 μM). 8 μl samples were taken at various time points and added to 8 μl stop solution (7M urea, 100 mM EDTA containing xylene cyanol F). At the end of the time course the 4 native dNTPs were added (final concentration each dNTP 40 μM) and reactions incubated at 50° C. for a further 30 minutes.

In the case of “SuperTaq: commercial preparation of Taq (HT biotechnology Ltd)”, the “amplification of previously un-amplifiable cave hyena DNA” value [1] is reported as “did not”.

B1: 5D4: round 5 clone selected for replication of 5NI; SEQ ID NO: 109 (protein)
chain: MAMLPLFEPKGRVLLVDGHHLAYRTFFALKGLTTSRGEPVQAVYGFAKSLLKALKEDGYKAIFVVFDAKAPSFRHEAHEAYKAGRAPSPEDFPRQLALIKELVDLLGFTRLEVQGYEADDVLATLAKKAEKEGYEVRILTADRDLYQLVSDRVAVLHPEGHLITPEWLWEKYGLRPEQWVDFRALVGDPSDNLPGVKGIGEKTALKLLKEWGSLENLLKNLDRLKPAIREKILAHMDDLKLSWDLAKVRTDLPLEVDFAKRRESDRERLRAFLERLEFGSLLHEFGLLESPKALEEAPWPPPVGAFVGFVLSRKEPMWADLLALAAARGGRVHRAPEPYKALRDLKEARGLLAKDLSVLALREGLGLPPGDDPMLLAYLLDPSNTTPEVVARRYGGEWTEEAGERAALSERLFANLWGRLEGEGRLLWLYRGVERPLSAVLAHMEATGVRLDVAYLRALSLEVAEEIARLEAEVFRLAGHPFNLNSRDQLERVLFDELGLPAIGKTEKTGKRSTSAAVLEALREAHPIVEKILQYRELTKLKSTYIDPLPDLIHPRTGRLHTRFNQTATATGRLSSSDPNLQNIPVRTPLGQRIRRAFIAEGGWLLVVLDYSQMELRVLAHLSGDENLIRVFQEGRDIHTETASWMFGVPREAVDPLMRRAAKTINFGVLYGMSAHRLSQELAIPYEEAQAFIERYFQSFPKVRAWIEKTLEEGRKRGYVETLFGRRRYVPDLNARVKSVREAAERMAFNMPVQGTAADLTKLAMVKLFPRLEETGARMLLQVHDELVLEAPKERAEAVARLAKEVMEGVYPLAVPLEVEVGIGEDWLSAKG
modifications: Mutant Taq polymerase
For B1, the “ability to replicate 5NI” value [2] was “greatly increased ability to replicate 5NI”.

B2: 4D11: round 4 clone selected for replication of 5NI; SEQ ID NO: 107 (protein)
chain: MAMLPLFEPKGRVLLVDGHHLAYRTFFALKGLTTSRGEPVQAVYGFAKSLLKALKEDGYKAVFVVFDAKAPSFRHEAYEAYKAGRAPTPEDFPRQLALIKELVDLLGFTRLEVQGYEADDVLATLAKKAEKEGYEVRILTADRDLYQLVSDRVAVLHPEGHLITPEWLWEKYGLRPEQWVDFRALVGDPSDNLPGIKGIGEKTALKLLKEWGSLENLLKNLDRVKPENVREKIKAHLEDLRLSLELSRVRTDLPLEVDFAKRREPDRERLRAFLERLEFGSLLHEFGLLESPKALEEAPWPPPEGAFVGFVLSRKEPMWADLLALAAAKGGRVHRAPEPYKALRDLKEARGLLAKDLSVLALREGLGLPPGDDPMLLAYLLDPSNTTPEGVARRYGGEWTEEAGERAALSERLFANLWGRLEGEERLLWLYREVERPLSAVLAHMEATGVRLDVAYLRALSLEVAEEIARLEAEVFRLAGHPFNLNSRDQLERVLFDELGLPAIGKTEKTGKRSTSAAVLEALREAHPIVEKILQYRELTKLKSTYIDPLPDLIHPRTGRLHTRFNQTATATGRLSSSDPNLQNIPVRTPLGQRIRRAFIAEGGWLLVVLDYSQMELRVLAHLSGDENLIRVFQEGRDIHTETASWMFGVPREAVDPLMRRAAKTINFGVLYGMSAHRLSQELAIPYEEAQAFIERYFQSFPKVRAWIEKTLEEGRRRGYVETLFGRRRYVPDLEARVKSVREAAERMAFNMPVQGTAADLMKLAMVKLFPRLEETGARMLLQVHDELVLEAPKERAEAVARLAKEVMEGVYPLAVPLEVEVGIGEDWLSAKE
modifications: Mutant Taq polymerase
With B2 the “ability to replicate 5NI” value [2] was “greatly increased ability to replicate 5NI”.

B3: Tth: Thermus thermophilus (Tth) wild-type polymerase (protein, UniProt P52028 1-834, looked up)
DNA polymerase I, thermostable: MEAMLPLFEPKGRVLLVDGHHLAYRTFFALKGLTTSRGEPVQAVYGFAKSLLKALKEDGYKAVFVVFDAKAPSFRHEAYEAYKAGRAPTPEDFPRQLALIKELVDLLGFTRLEVPGYEADDVLATLAKKAEKEGYEVRILTADRDLYQLVSDRVAVLHPEGHLITPEWLWEKYGLRPEQWVDFRALVGDPSDNLPGVKGIGEKTALKLLKEWGSLENLLKNLDRVKPENVREKIKAHLEDLRLSLELSRVRTDLPLEVDLAQGREPDREGLRAFLERLEFGSLLHEFGLLEAPAPLEEAPWPPPEGAFVGFVLSRPEPMWAELKALAACRDGRVHRAADPLAGLKDLKEVRGLLAKDLAVLASREGLDLVPGDDPMLLAYLLDPSNTTPEGVARRYGGEWTEDAAHRALLSERLHRNLLKRLEGEEKLLWLYHEVEKPLSRVLAHMEATGVRLDVAYLQALSLELAEEIRRLEEEVFRLAGHPFNLNSRDQLERVLFDELRLPALGKTQKTGKRSTSAAVLEALREAHPIVEKILQHRELTKLKNTYVDPLPSLVHPRTGRLHTRFNQTATATGRLSSSDPNLQNIPVRTPLGQRIRRAFVAEAGWALVALDYSQIELRVLAHLSGDENLIRVFQEGKDIHTQTASWMFGVPPEAVDPLMRRAAKTVNFGVLYGMSAHRLSQELAIPYEEAVAFIERYFQSFPKVRAWIEKTLEEGRKRGYVETLFGRRRYVPDLNARVKSVREAAERMAFNMPVQGTAADLMKLAMVKLFPRLREMGARMLLQVHDELLLEAPQARAEEVAALAKEAMEKAYPLAVPLEVEVGMGEDWLSAKG
For B3, the “incorporation and extension of d5NITP” value [3] was “almost undetectable extension reactions” and the “extension opposite 5-nitroindole” value ([2]; 50° C., cell lysate, identical conditions as 4D11 and 5D4, data not shown) was “almost undetectable extension reactions”.
